Reference: PMC12637224, “The nonconserved integrin cytoplasmic region determines integrin subtype–specific characteristics by modulating talin1 binding kinetics” (The Journal of Biological Chemistry, 2025)
Values belong to the molecule of their own block, whether it stands above or below them.

Assays:
[1] = biological target: HaloTag-fused talin1 (HT-talin1) expressed in BAF/LFA1 cells (UniProt P26039); experiment: single-molecule binding analysis (HT-Tln1 imaging in BAF/LFA1 cells); details: ICAM1+PMA, read off a plot
HaloTag-fused talin1 (HT-talin1) expressed in BAF/LFA1 cells, sequence (P26039 whole entry, looked up, the tested form may be a part): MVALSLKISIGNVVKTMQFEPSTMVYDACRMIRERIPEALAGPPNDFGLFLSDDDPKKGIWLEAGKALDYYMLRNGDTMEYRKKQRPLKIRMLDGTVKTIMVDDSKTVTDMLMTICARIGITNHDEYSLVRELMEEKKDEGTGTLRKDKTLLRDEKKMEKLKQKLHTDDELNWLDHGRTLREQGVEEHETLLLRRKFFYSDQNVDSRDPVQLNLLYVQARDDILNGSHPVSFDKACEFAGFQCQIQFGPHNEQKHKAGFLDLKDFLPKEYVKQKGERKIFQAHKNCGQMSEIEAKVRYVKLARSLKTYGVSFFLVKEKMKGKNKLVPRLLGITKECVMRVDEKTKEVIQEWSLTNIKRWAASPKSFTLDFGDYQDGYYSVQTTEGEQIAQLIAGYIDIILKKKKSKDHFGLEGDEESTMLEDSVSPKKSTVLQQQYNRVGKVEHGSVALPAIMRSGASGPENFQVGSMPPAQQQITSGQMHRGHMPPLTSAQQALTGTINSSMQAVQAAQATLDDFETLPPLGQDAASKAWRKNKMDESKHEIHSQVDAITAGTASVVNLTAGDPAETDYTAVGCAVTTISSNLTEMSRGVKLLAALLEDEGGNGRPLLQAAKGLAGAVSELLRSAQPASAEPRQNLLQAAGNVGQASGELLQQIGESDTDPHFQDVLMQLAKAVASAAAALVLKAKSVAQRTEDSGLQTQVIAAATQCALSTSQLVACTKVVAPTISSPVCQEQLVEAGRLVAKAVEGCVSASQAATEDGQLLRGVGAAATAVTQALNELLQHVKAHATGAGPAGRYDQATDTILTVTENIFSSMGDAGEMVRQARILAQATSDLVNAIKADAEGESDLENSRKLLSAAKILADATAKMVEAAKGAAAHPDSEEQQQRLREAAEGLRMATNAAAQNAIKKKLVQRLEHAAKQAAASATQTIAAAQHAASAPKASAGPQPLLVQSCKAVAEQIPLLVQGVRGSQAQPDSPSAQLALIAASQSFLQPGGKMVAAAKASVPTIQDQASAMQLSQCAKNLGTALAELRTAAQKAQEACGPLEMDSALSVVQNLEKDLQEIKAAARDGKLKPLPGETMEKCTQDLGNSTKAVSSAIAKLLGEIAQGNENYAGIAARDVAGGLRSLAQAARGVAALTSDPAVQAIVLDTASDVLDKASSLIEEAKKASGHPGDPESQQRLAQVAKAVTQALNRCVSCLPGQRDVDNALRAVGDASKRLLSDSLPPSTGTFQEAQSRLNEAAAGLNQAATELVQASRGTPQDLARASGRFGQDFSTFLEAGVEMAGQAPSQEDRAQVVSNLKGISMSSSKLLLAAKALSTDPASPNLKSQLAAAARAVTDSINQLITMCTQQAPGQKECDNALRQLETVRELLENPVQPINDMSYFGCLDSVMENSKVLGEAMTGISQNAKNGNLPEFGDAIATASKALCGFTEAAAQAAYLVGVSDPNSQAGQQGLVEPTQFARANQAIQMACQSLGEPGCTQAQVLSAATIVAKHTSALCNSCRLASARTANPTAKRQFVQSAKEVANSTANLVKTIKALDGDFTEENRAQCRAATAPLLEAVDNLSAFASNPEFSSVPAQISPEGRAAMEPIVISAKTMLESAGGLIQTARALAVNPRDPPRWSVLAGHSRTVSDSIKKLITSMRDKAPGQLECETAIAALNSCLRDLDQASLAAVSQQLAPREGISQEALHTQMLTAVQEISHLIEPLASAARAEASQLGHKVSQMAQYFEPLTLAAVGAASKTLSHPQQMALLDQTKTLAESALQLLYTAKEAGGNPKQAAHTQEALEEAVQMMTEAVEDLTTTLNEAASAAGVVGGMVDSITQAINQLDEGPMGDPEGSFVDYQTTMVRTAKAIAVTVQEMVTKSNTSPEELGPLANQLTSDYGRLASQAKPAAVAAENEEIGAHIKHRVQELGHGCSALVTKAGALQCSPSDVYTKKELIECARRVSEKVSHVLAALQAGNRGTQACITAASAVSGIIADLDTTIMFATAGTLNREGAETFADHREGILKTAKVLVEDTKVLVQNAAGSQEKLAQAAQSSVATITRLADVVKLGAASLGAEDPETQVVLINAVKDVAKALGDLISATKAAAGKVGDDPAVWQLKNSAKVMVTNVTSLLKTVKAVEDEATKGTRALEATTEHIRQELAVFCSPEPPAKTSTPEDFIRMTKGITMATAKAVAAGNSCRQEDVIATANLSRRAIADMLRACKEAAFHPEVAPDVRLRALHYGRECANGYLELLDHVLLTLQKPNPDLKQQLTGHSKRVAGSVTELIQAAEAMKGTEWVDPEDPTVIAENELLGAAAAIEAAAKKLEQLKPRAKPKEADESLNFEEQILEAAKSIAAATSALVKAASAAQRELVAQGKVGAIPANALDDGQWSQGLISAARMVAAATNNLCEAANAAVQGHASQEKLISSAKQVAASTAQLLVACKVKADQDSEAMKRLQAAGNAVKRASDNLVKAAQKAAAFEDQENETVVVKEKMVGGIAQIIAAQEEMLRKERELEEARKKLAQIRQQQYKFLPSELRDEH

[2] = biological target: T1, HaloTag-fused talin1 (HT-talin1), endogenous knock-in in mouse primary T cells (mouse (endogenous knock-in in mouse T …, UniProt P26039 1-2541, HaloTag labelled with HT SaraFluor 650T Ligand)); experiment: naive T cells, on PECAM1
[3] = biological target: T1, HaloTag-fused talin1 (HT-talin1), …; experiment: Th2 cells, on PECAM1
[4] = biological target: T2, GST-fused talin1 FERM F2–F3 domain; experiment: BLI
T2 chain: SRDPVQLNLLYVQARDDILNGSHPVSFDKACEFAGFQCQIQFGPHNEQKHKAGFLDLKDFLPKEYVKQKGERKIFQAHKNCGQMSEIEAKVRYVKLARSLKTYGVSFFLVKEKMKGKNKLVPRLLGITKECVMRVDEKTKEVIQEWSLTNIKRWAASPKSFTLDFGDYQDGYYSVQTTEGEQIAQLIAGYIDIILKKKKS

[5] = biological target: T2, GST-fused talin1 FERM F2–F3 domain; experiment: BLI
[6] = biological target: T3, GST-fused talin1 FERM F2–F3 domain (GST carrier omitted. F2-F3 limits are not given; 206-405 is the usual talin1 F2-F3 construct. Mouse is assumed because the other talin1 constructs in the paper are mouse.); experiment: BLI; Octet RH96; GST-talin1 FERM F2–F3 (10 μg/ml) immobilized on Octet GST Biosensors; synthetic integrin CT peptides at 4.9, 14.8, 44.4 and 133 μM as analytes in 25 mM Tris–HCl, 150 mM NaCl, 0.05% Triton X-100, pH 7.5; binding to GST alone subtracted; details: both partners purified
T3 chain: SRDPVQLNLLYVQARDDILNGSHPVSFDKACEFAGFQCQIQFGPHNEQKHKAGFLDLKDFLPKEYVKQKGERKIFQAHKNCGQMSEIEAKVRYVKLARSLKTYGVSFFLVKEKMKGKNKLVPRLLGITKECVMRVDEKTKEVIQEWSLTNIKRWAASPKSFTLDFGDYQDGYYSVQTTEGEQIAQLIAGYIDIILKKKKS

[7] = biological target: T1, HaloTag-fused talin1 (HT-talin1), …; experiment: activated T cells, on ICAM1
[8] = biological target: T1, HaloTag-fused talin1 (HT-talin1), …; experiment: naive T cells, on ICAM1
[9] = biological target: T1, HaloTag-fused talin1 (HT-talin1), …; experiment: naive T cells, on ICAM1; remark: listed apart in the source
[10] = biological target: T1, HaloTag-fused talin1 (HT-talin1), …; experiment: Th2 cells, on ICAM1
[11] = β2β7: n = 1453, β2β7-NND: n = 1726, parent: est. 19

other: binding frequency (events/area) ([1]; β2β7: n = 22, β2β7-NND: n = 14, parent: est. 1.2): 4.7 µm-2
other: frequency of binding time 1 to 10 s (yellow segment) [1, 11]: 23%
other: frequency of binding time, top of stacked bar (1 to 10 s plus >10 s) [1, 11]: 24%
Molecule: chimeric LFA1 αLα4/β2β7 (cytoplasmic tails of αL and β2 replaced with those of α4 and β7) (from UniProt P13612;P26010) KQDS to NND (β7 WN linker)

koff [2]: 0.326 s⁻¹
koff [3]: 0.264 s⁻¹
B1: αV/β3 integrin, endogenous on mouse primary T cells (receptor)
chain 1: FNLDVESPAEYAGPEGSYFGFAVDFFEPSTSSRMFLLVGAPKANTTQPGIVEGGQVLKCECSSSRRCQPIEFDSTGNRDYAKDDPLEFKSHQWFGASVRSKQDKILACAPLYHWRTEMKQEREPVGTCFLQDGTKTVEYAPCRSKNIDADGQGFCQGGFSIDFTKADRVLLGGPGSFYWQGQLISDQVAEIISKYDPNVYSIKYNNQLATRTAQAIFDDSYLGYSVAVGDFNGDGIEDFVSGVPRAARTLGMVYIYDGKNMSSLHNFTGEQMAAYFGFSVAATDINGDDYADVFIGAPLFMDRGSDGKLQEVGQVSVSLQRAVGDFQTTKLNGFEVFARFGSAIAPLGDLDQDGFNDIAIAAPYGGEDKKGLVYIFNGRSTGLNSVPSQILEGQWAAQSMPPSFGYSMKGATDVDRNGYPDLVVGAFGVDRAVLYRARPVVTVNAGLEVYPSILNQDNKICPLPGTALKVSCFNVRFCLKADGKGTLPRKLHFQVELLLDKLKQKGAIRRALFLHNRSPVHSKTMTVFRGGQMQCEELVAYLRDESEFRDKLTPITIFMEYRLDQRTAADATGLQPILNQFTPANVSRQAHILLDCGEDNVCKPKLEVSVNSDQKKIYIGDDNPLTLTVKAQNQGEGAYEAELIVSIPPQADFIGVVRNNEALARLSCAFKTENQTRQVVCDLGNPMKAGTQLLAGLRFSVHQQSEMDTSVKFDLKIQSSNSFDNVSPVVSYKVDLAVLAAVEIRGVSSPDHIFLPIPNWEYKENPETEEDVGPIVQHIYELRNNGPSSFSKAILNLQWPYKYNNNTLLYILHYDIDGPMNCTADTEINPLRIKTPEKNDTAAAGQGERNHLITKRDLTLREGDVHTLGCGIAKCLQITCQVGRLDRGKSAILYVKSLLWTETFMNKENQNHSYSLKSSASFNIIEFPYKNLPIEDLFNSTLVTTNITWGIQPAPMPVPVWVIILAVLAGLLLLAVLVFVMYRMGFFKRVRPPQEEQEREQLQPHENGEGNSET
chain 2: ESNICTTRGVNSCQQCLAVSPVCAWCSDETLSQGSPRCNLKENLLKDNCAPESIEFPVSEAQILEARPLSSKGSGSSAQITQVSPQRIALRLRPDDSKIFSLQVRQVEDYPVDIYYLMDLSFSMKDDLSSIQTLGTKLASQMRKLTSNLRIGFGAFVDKPVSPYMYISPPQAIKNPCYNMKNACLPMFGYKHVLTLTDQVSRFNEEVKKQSVSRNRDAPEGGFDAIMQATVCDEKIGWRNDASHLLVFTTDAKTHIALDGRLAGIVLPNDGHCHIGTDNHYSASTTMDYPSLGLMTEKLSQKNINLIFAVTENVVSLYQNYSELIPGTTVGVLSDDSSNVLQLIVDAYGKIRSKVELEVRDLPEELSLSFNATCLNNEVIPGLKSCVGLKIGDTVSFSIEAKVRGCPQEKEQSFTIKPVGFKDSLTVQVTFDCDCACQAFAQPSSPRCNNGNGTFECGVCRCDQGWLGSMCECSEEDYRPSQQEECSPKEGQPICSQRGECLCGQCVCHSSDFGKITGKYCECDDFSCVRYKGEMCSGHGQCNCGDCVCDSDWTGYYCNCTTRTDTCMSTNGLLCSGRGNCECGSCVCVQPGSYGDTCEKCPTCPDACSFKKECVECKKFNRGTLHEENTCSRYCRDDIEQVKELTDTGKNAVNCTYKNEDDCVVRFQYYEDTSGRAVLYVVEEPECPKGPDILVVLLSVMGAILLIGLATLLIWKLLITIHDRKEFAKFEEERARAKWDTANNPLYKEATSTFTNITYRGT

Kd [4]: 43.5 µM
koff [5]: 0.00398 s⁻¹
B2: synthetic integrin β2 cytoplasmic tail peptide (peptide)
peptide: KALIHLSDLREYRRFEKEKLKSQWNNDNPLFKSATTTVMNPKFAES
modifications: GST carrier omitted. F2-F3 limits are not given; 206-405 is the usual talin1 F2-F3 construct. Mouse is assumed because the other talin1 constructs in the paper are mouse.

fold higher affinity than m25 (β7 peptide) [6]: 3 fold
fold higher affinity than m26 (β3 peptide) [6]: 3 fold
fold higher affinity than m27 (β1 peptide) [6]: 2 fold
B3: synthetic integrin β2 cytoplasmic tail peptide (peptide, UniProt P05107 724-769, looked up)
peptide: KALIHLSDLREYRRFEKEKLKSQWNNDNPLFKSATTTVMNPKFAES
notes: integrin β2 cytoplasmic tail peptide; also called β2 integrin; β2-CT; source: synthetic peptide (GenScript)

Kd [4]: 90.2 µM
koff [5]: 0.00509 s⁻¹
B4: synthetic integrin β1 cytoplasmic tail peptide (peptide)
peptide: KLLMIIHDRREFAKFEKEKMNAKWDTGENPIYKSAVTTVVNPKYEGK
modifications: GST carrier omitted. F2-F3 limits are not given; 206-405 is the usual talin1 F2-F3 construct. Mouse is assumed because the other talin1 constructs in the paper are mouse.

Kd [4]: 124 µM
koff [5]: 0.00597 s⁻¹
B5: synthetic integrin β7 cytoplasmic tail peptide (peptide)
peptide: RLSVEIYDRREYSRFEKEQQQLNWKQDSNPLYKSAITTTINPRFQEADSPTL
modifications: GST carrier omitted. F2-F3 limits are not given; 206-405 is the usual talin1 F2-F3 construct. Mouse is assumed because the other talin1 constructs in the paper are mouse.

koff [7]: 0.279 s⁻¹
koff [8]: 0.288 s⁻¹
koff [9]: 0.316 s⁻¹
koff [10]: 0.17 s⁻¹
B6: LFA1 (αL/β2 integrin), endogenous on mouse primary T cells (receptor)
chain 1: YNLDTRPTQSFLAQAGRHFGYQVLQIEDGVVVGAPGEGDNTGGLYHCRTSSEFCQPVSLHGSNHTSKYLGMTLATDAAKGSLLACDPGLSRTCDQNTYLSGLCYLFPQSLEGPMLQNRPAYQECMKGKVDLVFLFDGSQSLDRKDFEKILEFMKDVMRKLSNTSYQFAAVQFSTDCRTEFTFLDYVKQNKNPDVLLGSVQPMFLLTNTFRAINYVVAHVFKEESGARPDATKVLVIITDGEASDKGNISAAHDITRYIIGIGKHFVSVQKQKTLHIFASEPVEEFVKILDTFEKLKDLFTDLQRRIYAIEGTNRQDLTSFNMELSSSGISADLSKGHAVVGAVGAKDWAGGFLDLREDLQGATFVGQEPLTSDVRGGYLGYTVAWMTSRSSRPLLAAGAPRYQHVGQVLLFQAPEAGGRWNQTQKIEGTQIGSYFGGELCSVDLDQDGEAELLLIGAPLFFGEQRGGRVFTYQRRQSLFEMVSELQGDPGYPLGRFGAAITALTDINGDRLTDVAVGAPLEEQGAVYIFNGKPGGLSPQPSQRIQGAQVFPGIRWFGRSIHGVKDLGGDRLADVVVGAEGRVVVLSSRPVVDVVTELSFSPEEIPVHEVECSYSAREEQKHGVKLKACFRIKPLTPQFQGRLLANLSYTLQLDGHRMRSRGLFPDGSHELSGNTSITPDKSCLDFHFHFPICIQDLISPINVSLNFSLLEEEGTPRDQKVGRAMQPILRPSIHTVTKEIPFEKNCGEDKKCEANLTLSSPARSGPLRLMSSASLAVEWTLSNSGEDAYWVRLDLDFPRGLSFRKVEMLQPHSRMPVSCEELTEGSSLLTKTLKCNVSSPIFKAGQEVSLQVMFNTLLNSSWEDFVELNGTVHCENENSSLQEDNSAATHIPVLYPVNILTKEQENSTLYISFTPKGPKTQQVQHVYQVRIQPSAYDHNMPTLEALVGVPWPHSEDPITYTWSVQTDPLVTCHSEDLKRPSSEAEQPCLPGVQFRCPIVFRREILIQVTGTVELSKEIKASSTLSLCSSLSVSFNSSKHFHLYGSKASEAQVLVKVDLIHEKEMLHVYVLSGIGGLVLLFLIFLALYKVGFFKRNLKEKMEADGGVPNGSPPEDTDPLAVPGEETKDMGCLEPLRESDKD
chain 2: QECTKYKVSSCRDCIQSGPGCSWCQKLNFTGPGEPDSLRCDTRAQLLLKGCPADDIMDPRSIANPEFDQRGQRKQLSPQKVTLYLRPGQAAAFNVTFRRAKGYPIDLYYLMDLSYSMLDDLNNVKKLGGDLLQALNEITESGRIGFGSFVDKTVLPFVNTHPEKLRNPCPNKEKACQPPFAFRHVLKLTDNSNQFQTEVGKQLISGNLDAPEGGLDAIMQVAACPEEIGWRNVTRLLVFATDDGFHFAGDGKLGAILTPNDGRCHLEDNMYKRSNEFDYPSVGQLAHKLSESNIQPIFAVTKKMVKTYEKLTEIIPKSAVGELSDDSSNVVQLIKNAYYKLSSRVFLDHSTLPDTLKVTYDSFCSNGASSIGKSRGDCDGVQINNPVTFQVKVMASECIQEQSFVIRALGFTDTVTVQVRPQCECQCRDQSREQSLCGGKGVMECGICRCESGYIGKNCECQTQGRSSQELERNCRKDNSSIVCSGLGDCICGQCVCHTSDVPNKEIFGQYCECDNVNCERYNSQVCGGSDRGSCNCGKCSCKPGYEGSACQCQRSTTGCLNARLVECSGRGHCQCNRCICDEGYQPPMCEDCPSCGSHCRDNHTSCAECLKFDKGPFEKNCSVQCAGMTLQTIPLKKKPCKERDSEGCWITYTLQQKDGRNIYNIHVEDSLECVKGPNVAAIVGGTVVGVVLIGVLLLVIWKALTHLTDLREYRRFEKEKLKSQWNNDNPLFKSATTTVMNPKFAES

Kd [4]: 133 µM
koff [5]: 0.00458 s⁻¹
B7: synthetic integrin β3 cytoplasmic tail peptide (peptide)
peptide: KLLITIHDRKEFAKFEEERARAKWDTANNPLYKEATSTFTNITYRGT
modifications: GST carrier omitted. F2-F3 limits are not given; 206-405 is the usual talin1 F2-F3 construct. Mouse is assumed because the other talin1 constructs in the paper are mouse.
